Results on four molecules are retold here after patent US20230303701A1 (ABEXXA BIOLOGICS, published 2023).

Where two headings read alike, the source gives them in different places.

Assay [1] addresses V-0025 (…, HLA-G signal peptide)/HLA-E*0103 monomer complex (human). Put plainly: ELISA, V-0025 at 0.25 µg/mL, antibody titrated from 2 µg/mL to 3.8 pg/mL.
The target in assay [2] is HLA-E/… (V-0025, HLA-G signal peptide) complex on cells (human) (UniProt P13747). Put plainly: flow cytometry, K562.E +V-0025, column 0 µg/mL +mIgG1. On the technique in general: In flow cytometry, cells or beads pass a laser one at a time.
Assay [3] deals with HLA-E on cells that do not present the HLA-G signal peptide (unpulsed K562.E cells; HLA-E positive, HLA-G negative cells; Tap-1 knock-out cells) (human) (UniProt P13747). Put plainly: flow cytometry, K562.E, column 0 µg/mL +mIgG1.
Assay [4] concerns the target T1, V-0025 (…, HLA-G signal peptide)/HLA-E*0103 monomer complex (human).
T1 construct: also called ABI-V-0025; 0025-E 01:03 monomer complex
The assay can be described thus: ELISA, V-0025 at 0.25 µg/mL, antibody titrated from 2 µg/mL to 3.8 pg/mL. For orientation: In an ELISA, binding on a coated surface is turned into a signal by an enzyme label.

Assay [5] has as its target T1, V-0025 (…, HLA-G signal …). The assay can be described thus: label-free ResoSens instrument; ABX0011 captured by anti-IgG-Fc, monomer complex in serial dilutions from 5 µg/ml; monovalent.
The target of assay [6] is T2, HLA-E/… (V-0025, HLA-G signal peptide) complex on cells (human, UniProt P13747 22-358; P61769 21-119).
T2 construct: also called K562.E + V-0025; V-0025 peptide pulsed K562 cells expressing HLA-E
The assay can be described thus: flow cytometry, ABX0011 staining with Fc block, K562.E cells pulsed with 20 ug/mL peptide for 2hr.

In assay [7] the target is T3, P-0550 (…, PODXL2) pulsed on K562 cells expressing HLA-E (human, UniProt P13747 22-358; P61769 21-119). The description is as above.
The target in assay [8] is T4, V-0034 (…) pulsed on K562 cells expressing HLA-E (human, UniProt P13747 22-358; P61769 21-119). The description is as above.
Assay [9] deals with V-0034 (…)/HLA-E 01:03 monomer complex (human). Put plainly: ELISA, monomers on a neutravidin plate.
Assay [10] concerns the target V-0037 (…)/HLA-E 01:03 monomer complex (human). The assay can be described thus: ELISA, monomers on a neutravidin plate.
Assay [11] has as its target V-0043 (…)/HLA-E 01:03 monomer complex (human). Put plainly: ELISA, monomers on a neutravidin plate.
Assay [12] has as its target T5, HLA-G on cell lines that express HLA-G but not HLA-E (human, UniProt P17693 25-338).
T5 construct: whole, on cells
Put plainly: flow cytometry, IFNγ-stimulated JEG3 HLA-E knock-out.

The target of assay [13] is V-0021 (…)/HLA-E 01:03 monomer complex (human). The assay can be described thus: ELISA, monomer at 0.25 ug/ml on neutravidin plate (FIG. 9B).
The target in assay [14] is V-0046 (…)/HLA-E 01:03 monomer complex (human). The assay is described as above.
Assay [15] deals with V-0038 (…, Hsp60)/HLA-E 01:03 monomer complex (human). The description is as above.
For assay [16], the target named is P-0550 (…, PODXL2)/HLA-E 01:03 monomer complex (human). The assay is described as above.
In assay [17] the target is V-0045 (…)/HLA-E 01:03 monomer complex (human). The description is as above.
Assay [18] concerns the target V-0035 (…)/HLA-E 01:03 monomer complex (human). Described as above.
Assay [19] addresses V-0040 (…)/HLA-E 01:03 monomer complex (human). The assay is described as above.
In assay [20] the target is V-0041 (…)/HLA-E 01:03 monomer complex (human). Described as above.
The target of assay [21] is V-0044 (…)/HLA-E 01:03 monomer complex (human). Described as above.
Assay [22] deals with V-0042 (…)/HLA-E 01:03 monomer complex (human). The description is as above.
Assay [23] concerns the target peptide-empty HLA-E (human). Put plainly: ELISA, ABX0011 in mouse serum, HLA-E 01:03 monomers.
Assay [24] has as its target T5, HLA-G on cell lines that express HLA-G …. Put plainly: flow cytometry, JEG3 stimulated with IFNγ (FIG. 25A of the legend).
The target in assay [25] is V-0041 (…) pulsed on K562 cells expressing HLA-E (human, UniProt P13747 22-358; P61769 21-119). Put plainly: flow cytometry, peptide-pulsed K562.E cells, antibody molecules per cell.
In assay [26] the target is V-0040 (…) pulsed on K562 cells expressing HLA-E (human, UniProt P13747 22-358; P61769 21-119). The description is as above.
Assay [27] deals with V-0037 (…) pulsed on K562 cells expressing HLA-E (human, UniProt P13747 22-358; P61769 21-119). The assay is described as above.
The target in assay [28] is V-0045 (…) pulsed on K562 cells expressing HLA-E (human, UniProt P13747 22-358; P61769 21-119). The assay is described as above.
The target in assay [29] is V-0044 (…) pulsed on K562 cells expressing HLA-E (human, UniProt P13747 22-358; P61769 21-119). The description is as above.
For assay [30], the target named is V-0046 (…) pulsed on K562 cells expressing HLA-E (human, UniProt P13747 22-358; P61769 21-119). The assay is described as above.
Assay [31] has as its target V-0038 (…, Hsp60) pulsed on K562 cells expressing HLA-E (human, UniProt P13747 22-358; P61769 21-119). The description is as above.
Assay [32] has as its target T3, P-0550 (…, PODXL2) pulsed on K562 cells …. The assay is described as above.
The target in assay [33] is V-0035 (…) pulsed on K562 cells expressing HLA-E (human, UniProt P13747 22-358; P61769 21-119). Described as above.
Assay [34] deals with T4, V-0034 (…) pulsed on K562 cells …. The assay is described as above.
The target in assay [35] is V-0043 (…) pulsed on K562 cells expressing HLA-E (human, UniProt P13747 22-358; P61769 21-119). The description is as above.
The target of assay [36] is V-0021 (…) pulsed on K562 cells expressing HLA-E (human, UniProt P13747 22-358; P61769 21-119). The description is as above.
Assay [37] has as its target V-0042 (…) pulsed on K562 cells expressing HLA-E (human, UniProt P13747 22-358; P61769 21-119). The description is as above.

Sequence of HLA-E on cells that do not present the HLA-G signal peptide (unpulsed K562.E cells; HLA-E positive, HLA-G negative cells; Tap-1 knock-out cells) (human) (P13747 22-358): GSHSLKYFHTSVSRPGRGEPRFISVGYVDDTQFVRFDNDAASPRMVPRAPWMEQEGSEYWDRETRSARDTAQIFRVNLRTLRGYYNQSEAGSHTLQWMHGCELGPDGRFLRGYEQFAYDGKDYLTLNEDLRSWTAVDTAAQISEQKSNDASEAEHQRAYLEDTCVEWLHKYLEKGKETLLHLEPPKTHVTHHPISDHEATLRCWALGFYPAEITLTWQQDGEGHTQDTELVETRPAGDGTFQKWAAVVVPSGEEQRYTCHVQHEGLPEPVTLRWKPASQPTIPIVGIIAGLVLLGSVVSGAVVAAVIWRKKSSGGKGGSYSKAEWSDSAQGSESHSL

Broadly, the EC50 (read off the curve) is the concentration that produces a half-maximal response. Molecule anti-HLA-E antibody clone 3D12 yielded an EC50 (read off the curve) in assay [1] of 7 ng/mL.

For mIgG1 (antibody), the % of cells in Q3 (HLA-E channel +, Fab-scFv-Fc -) in assay [2] is 0.37; in assay [3], 0.39.

B1: ABX0011 (antibody, V domains shown)
VH: EVQLLESGGGLVQPGGSLRLSCAASGFTFSSYAMSWVRQAPGKGLEWVSTIAYGGGATAYADSVKGRFTISRDNSKNTLYLQMNSLRAEDTAVYYCAKGLSNFDYWGQGTLVTVSS
VL: DIQMTQSPSSLSASVGDRVTITCRASQSISSYLNWYQQKPGKAPKLLIYAASSLQSGVPSRFSGSGSGTDFTLTISSLQPEDFATYYCQQAAAYPSLFGQGTKVEIK
notes: also called ABX-11; R2-C02 as hIgG1
A word on the Kd: it is the equilibrium constant for the complex coming apart. Lower therefore signals tighter binding. B1: the “EC50 (read off the curve)” value in assay [4] was about 1 ng/mL; in [6] it was about 0.05 µg/mL. In addition, binding in assay [5] was put at a Kd of 7.9 nM. Besides, the binding result is “no binding (tested: 10 µg/mL)” in [7]; “no binding (tested: 10 µg/mL)” in assay [8]; “no binding (tested: 1 ug/ml)” in assay [9]; “no binding (tested: 1 ug/ml)” in assay [10]; “no binding (tested: 1 ug/ml)” in assay [11]; “no binding (tested: 1 µg/mL)” in assay [12]. Moreover, the binding result in assay [13], in [14], in assay [15], in assay [16], in assay [17] and in assay [18] was “no binding (tested: 1 ug/ml)” each time. The binding result is “no binding (tested: 1 ug/ml)” in [19]; “no binding (tested: 1 ug/ml)” in [20]; “no binding (tested: 1 ug/ml)” in assay [21]; “no binding (tested: 1 ug/ml)” in assay [22]; “no binding (tested: 1 µg/ml)” in [23].

B2: ABX0012 (ABX0011 with mouse IgG1) (antibody, V domains shown)
VH: EVQLLESGGGLVQPGGSLRLSCAASGFTFSSYAMSWVRQAPGKGLEWVSTIAYGGGATAYADSVKGRFTISRDNSKNTLYLQMNSLRAEDTAVYYCAKGLSNFDYWGQGTLVTVSS
VL: DIQMTQSPSSLSASVGDRVTITCRASQSISSYLNWYQQKPGKAPKLLIYAASSLQSGVPSRFSGSGSGTDFTLTISSLQPEDFATYYCQQAAAYPSLFGQGTKVEIKR
notes: also called ABX012; AB0012
Take B2: the binding result in [24], in assay [25], in assay [26], in assay [27], in assay [28] and in assay [29] was “no binding” each time. For the same molecule, the binding result in assay [30], in assay [31], in [32], in assay [33], in assay [34] and in assay [35] was “no binding” each time. The binding result in assay [36] and in assay [37] was “no binding” in each case.
